B1: PPEF2 (parent)
chain: AFKAAALIQRWYRRYVARLEMRRR
B2: CLINT1 (parent)
chain: VVTSAREHIYDLRSLENYHFVDEH

Variants of: B1
Experiment: protein stability index of a GFP-peptide fusion (GPS, HEK-293T) (PSI 1-6); higher = more stable
Conditions: c terminus: a fixed tail appended
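Note: lentivirally expressed fusions sorted by FACS into six bins by GFP to DsRed ratio, PSI derived from sequencing read proportions per bin multiplied by bin number.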

Protein stability index: each site, then its substitutions
R24: P 2.39; Q 3.32; K 2.75; W 1.99; Y 2.87; T 2.48; S 2.63; V 2.34; H 3.78; M 2.45; E 3; F 1.81; G 3.09; N 3.62; L 2.9

Variants of: B2
Experiment: as above
Conditions: c terminus: a fixed tail appended

Protein stability index of substitutions, site by site:
A5: S 3.15; K 2.36; E 3.81; Y 2.24; N 2.92; H 2.83; R 2.67; P 3.35; C 2.08; F 2.53; V 2.24; T 2.98; L 1.97; W 2.16; D 3.53; M 2.57; G 3.15; Q 3.71; I 3.23
V1: L 2.62; D 4.06; T 3.63; P 3.5; K 3.45; S 3.68; W 2.47; C 2.54; I 2.67; F 1.79; H 3.35; G 3.67; R 2.92; A 3.89; E 3.96; N 3.8; M 2.88; Q 3.5; Y 1.5
R6: H 3.07; S 3.93; V 2.31; C 2.91; P 3.08; K 3.48; Y 2.35; A 2.45; M 2.33; T 2.75; G 3.04; F 1.55; Q 3.4; L 1.75; D 3.63; E 3.87; I 1.84; W 3.17; N 3.14
H8: F 1.9; D 3.48; R 2.61; N 2.83; G 3.13; E 2.99; P 3.21; A 2.52; W 2.12; T 2.91; Y 1.89; V 2.22; K 2.45; S 3.31; L 2.29; I 2.65; Q 3.16; M 2.33; C 2.1
V2: G 3.34; P 4.19; N 3.62; Q 3.53; T 3.24; A 3.34; E 3.67; F 2.56; K 3.01; L 3.23; I 2.3; H 3.44; S 3.12; W 2.38; R 3.13; Y 2.67; C 2.9; M 3.2; D 4.26
T3: A 2.62; S 2.89; H 2.48; C 2.29; V 2.07; I 2.04; Q 3.25; L 2.32; Y 2.24; N 2.8; E 3.84; D 3.52; P 2.99; K 3.11; M 2.1; W 2.31; F 1.98; G 3.78; R 3.09
S4: A 2.41; W 2.48; T 3.18; E 3.04; V 2.47; Y 1.48; F 2.03; L 1.95; D 3.82; Q 2.91; R 2.65; N 2.84; C 1.64; I 2.1; M 2.24; P 3.4; K 2.52; H 2.82; G 2.73
I9: A 2.98
E7: M 1.39; D 2.29; W 2.44; P 2.44; S 2.4; A 2.41; N 2.64; T 2.73; Q 1.85; F 1.9; Y 2.57; G 1.73; L 2.3; H 2.17; K 2.77; C 1.86; V 2.26; R 2.07
